Series [1] relates to HeLa Kyoto. The series can be described thus: solubility change mitosis vs G1/S (difference of NP-40 vs SDS log2 ratios) (log2 ratio difference); higher = more soluble in mitosis.
Series [2] has as its system HeLa Kyoto. The series can be described thus: thermal stability score vs G1/S (z-score of summed log2 fold changes over temperatures); higher = more thermally stable than in G1/S.
Series [3] has as its system HeLa Kyoto. Description: solubility in G1/S (NP-40 vs SDS abundance) (log2 ratio); higher = more soluble. To be noted: cell cycle stage: G1/S.
Series [4] has as its system HeLa Kyoto. The series can be described thus: melting temperature (median over replicates), in situ; higher = more thermally stable.
Where [5] appears, read: cell cycle stage: early G1 (4.5 h after nocodazole release).
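Throughout, for melting temperature (median over replicates), in situ: HeLa Kyoto cells synchronized by double thymidine or nocodazole block, proteins quantified by TMT10plex mass spectrometry, three independent biological replicates.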
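Throughout, for solubility change mitosis vs G1/S (difference of NP-40 vs SDS log2 ratios): synchronized HeLa Kyoto cells (double thymidine block for G1/S, nocodazole release for mitosis), protein amounts in NP-40 versus SDS lysates quantified by mass spectrometry, three biological replicates.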
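Throughout, for solubility in G1/S (NP-40 vs SDS abundance): HeLa Kyoto cells arrested at G1/S by double thymidine block, proteins quantified by TMT10plex mass spectrometry in mild NP-40 versus SDS extracts, three biological replicates.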
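Throughout, for thermal stability score vs G1/S (z-score of summed log2 fold changes over temperatures): synchronized HeLa Kyoto cells, proteins quantified by TMT10plex mass spectrometry, three biological replicates, mitosis taken 0.5 h after nocodazole release, G1/S directly after double thymidine block.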

“MADMQNLVERLERAVGRLEAVSHTSDMHRGYADSPSKAGAAPYVQAFDSLLAGPVAEYLKISKEIGGDVQKHAEMVHTGLKLERALLVTASQCQQPAENKLSDLLAPISEQIKEVITFREKNRGSKLFNHLSAVSESIQALGWVAMAPKPGPYVKEMNDAAMFYTNRVLKEYKDVDKKHVDWVKAYLSIWTELQAYIKEFHTTGLAWSKTGPVAKELSGLPSGPSAGSCPPPPPPCPPPPPVSTISCSYESASRSSLFAQINQGESITHALKHVSDDMKTHKNPALKAQSGPVRSGPKPFSAPKPQTSPSPKRATKKEPAVLELEGKKWRVENQENVSNLVIEDTELKQVAYIYKCVNTTLQIKGKINSITVDNCKKLGLVFDDVVGIVEIINSKDVKVQVMGKVPTISINKTDGCHAYLSKNSLDCEIVSAKSSEMNVLIPTEGGDFNEFPVPEQFKTLWNGQKLVTTVTEIAG [CAP1]”: in the series with HeLa Kyoto [1], the “solubility change mitosis (log2)” value is 0.000121. Also, the thermal stability score in the series on HeLa Kyoto [2] (setting [5]) is -0.637; with HeLa Kyoto [2] (cell cycle stage: mitosis) it was -0.459. Besides, the “solubility in G1/S (log2)” value in the series with HeLa Kyoto [3] turned out to be 0.178. In addition, the values for the melting temperature with HeLa Kyoto [4] (cell cycle stage: G1/S) and with HeLa Kyoto [4] (cell cycle stage: mitosis) were 53.6 °C and 53.2 °C, respectively.

As to “MADQLYLENIDEFVTDQNKIVTYKWLSYTLGVHVNQAKQMLYDYVERKRKENSGAQLHVTYLVSGSLIQNGHSCHKVAVVREDKLEAVKSKLAVTASIHVYSIQKAMLKDSGPLFNTDYDILKSNLQNCSKFSAIQCAAAVPRAPAESSSSSKKFEQSHLHMSSETQANNELTTNGHGPPASKQVSQQPKGIMGMFASKAAAKTQETNKETKTEAKEVTNASAAGNKAPGKGNMMSNFFGKAAMNKFKVNLDSEQAVKEEKIVEQPTVSVTEPKLATPAGLKKSSKKAEPVKVLQKEKKRGKRVALSDDETKETENMRKKRRRIKLPESDSSEDEVFPDSPGAYEAESPSPPPPPSPPLEPVPKTEPEPPSVKSSSGENKRKRKRVLKSKTYLDGEGCIVTEKVYESESCTDSEEELNMKTSSVHRPPAMTVKKEPREERKGPKKGTAALGKANRQVSITGFFQRK [POLD3]”, the “solubility change mitosis (log2)” value with HeLa Kyoto [1] was -0.0027. The figures for the thermal stability score in the series on HeLa Kyoto [2] (setting [5]) and in the series on HeLa Kyoto [2] (cell cycle stage: mitosis) were 0.776 and 2.8, respectively. The “solubility in G1/S (log2)” value in the series with HeLa Kyoto [3] came to 0.0553. In addition, the melting temperature in the series on HeLa Kyoto [4] (cell cycle stage: G1/S) amounted to 47 °C; with HeLa Kyoto [4] (cell cycle stage: mitosis) it was 48.1 °C.

In the case of “MADSRDPASDQMQHWKEQRAAQKADVLTTGAGNPVGDKLNVITVGPRGPLLVQDVVFTDEMAHFDRERIPERVVHAKGAGAFGYFEVTHDITKYSKAKVFEHIGKKTPIAVRFSTVAGESGSADTVRDPRGFAVKFYTEDGNWDLVGNNTPIFFIRDPILFPSFIHSQKRNPQTHLKDPDMVWDFWSLRPESLHQVSFLFSDRGIPDGHRHMNGYGSHTFKLVNANGEAVYCKFHYKTDQGIKNLSVEDAARLSQEDPDYGIRDLFNAIATGKYPSWTFYIQVMTFNQAETFPFNPFDLTKVWPHKDYPLIPVGKLVLNRNPVNYFAEVEQIAFDPSNMPPGIEASPDKMLQGRLFAYPDTHRHRLGPNYLHIPVNCPYRARVANYQRDGPMCMQDNQGGAPNYYPNSFGAPEQQPSALEHSIQYSGEVRRFNTANDDNVTQVRAFYVNVLNEEQRKRLCENIAGHLKDAQIFIQKKAVKNFTEVHPDYGSHIQALLDKYNAEKPKNAIHTFVQSGSHLAAREKANL [CAT]”, the “solubility change mitosis (log2)” value in the series with HeLa Kyoto [1] was -0.000938. Further, the thermal stability score is -2.19 in the series with HeLa Kyoto [2] (setting [5]) and -2.27 in the series with HeLa Kyoto [2] (cell cycle stage: mitosis). The “solubility in G1/S (log2)” value in the series on HeLa Kyoto [3] came to 0.174. Further, the melting temperature was 58.2 °C in the series with HeLa Kyoto [4] (cell cycle stage: G1/S) and 57.9 °C in the series on HeLa Kyoto [4] (cell cycle stage: mitosis).

On to “MADSSGQQGKGRRVQPQWSPPAGTQPCRLHLYNSLTRNKEVFIPQDGKKVTWYCCGPTVYDASHMGHARSYISFDILRRVLKDYFKFDVFYCMNITDIDDKIIKRARQNHLFEQYREKRPEAAQLLEDVQAALKPFSVKLNETTDPDKKQMLERIQHAVQLATEPLEKAVQSRLTGEEVNSCVEVLLEEAKDLLSDWLDSTLGCDVTDNSIFSKLPKFWEGDFHRDMEALNVLPPDVLTRVSEYVPEIVNFVQKIVDNGYGYVSNGSVYFDTAKFASSEKHSYGKLVPEAVGDQKALQEGEGDLSISADRLSEKRSPNDFALWKASKPGEPSWPCPWGKGRPGWHIECSAMAGTLLGASMDIHGGGFDLRFPHHDNELAQSEAYFENDCWVRYFLHTGHLTIAGCKMSKSLKNFITIKDALKKHSARQLRLAFLMHSWKDTLDYSSNTMESALQYEKFLNEFFLNVKDILRAPVDITGQFEKWGEEEAELNKNFYDKKTAIHKALCDNVDTRTVMEEMRALVSQCNLYMAARKAVRKRPNQALLENIALYLTHMLKIFGAVEEDSSLGFPVGGPGTSLSLEATVMPYLQVLSEFREGVRKIAREQKVPEILQLSDALRDNILPELGVRFEDHEGLPTVVKLVDRNTLLKEREEKRRVEEEKRKKKEEAARRKQEQEAAKLAKMKIPPSEMFLSETDKYSKFDENGLPTHDMEGKELSKGQAKKLKKLFEAQEKLYKEYLQMAQNGSFQ [CARS]”, for which the “solubility change mitosis (log2)” value with HeLa Kyoto [1] is -0.103. The values for the thermal stability score in the series on HeLa Kyoto [2] (setting [5]) and in the series with HeLa Kyoto [2] (cell cycle stage: mitosis) were 0.401 and -0.0333, respectively. Further, the “solubility in G1/S (log2)” value in the series with HeLa Kyoto [3] was 0.0728. In addition, the melting temperature in the series on HeLa Kyoto [4] (cell cycle stage: G1/S) was determined as 52.9 °C; with HeLa Kyoto [4] (cell cycle stage: mitosis) it was 52.6 °C.

(Values after the supplement of paper PMC5998384.)
